Patent US20100298542A1 (Chugai, published 2010)

How the values were obtained:
[1] = target: T1, soluble human FcRn (complex of FcRn extracellular domain and β2-microglobulin) (human, UniProt P55899 24-290; P16213 21-119); test: SPR (Biacore 3000), antibody captured on Protein L or anti-human kappa antibody, human FcRn as analyte, pH 6.0, steady state affinity
T1 construct: The stated ranges are those of the expressed constructs and contain the signal regions; Expressed in HEK293H cells, purified on IgG Sepharose and HiTrap Q; also called hFcRn
Description: (§1) The binding to human FcRn was assessed using Biacore 3000. […] Human FcRn was then injected and the binding of the human FcRn to antibody was assessed. The affinity was computed using BIAevaluation Software. The obtained sensorgram was used to calculate the amount of hFcRn bound to the antibody immediately before the end of human FcRn injection. The affinity of the antibody for human FcRn was calculated by fitting with the steady state affinity method.

[2] = target: T1, soluble human FcRn (complex of FcRn …); test: SPR (Biacore 3000), human FcRn, pH 6.0, steady state affinity
Description: as §1

[3] = target: T1, soluble human FcRn (complex of FcRn …); test: SPR (Biacore 3000), method of Example 6: captured antibody, human FcRn as analyte, pH 6.0, steady state affinity
Description: as §1

Row | Binder | Kd [1] [nM] | binding as a multiple of that of WT-IgG1 [2] | Kd [3] [nM]
1 | WT-M58 (humanized PM-1 variable region, M58 constant region) (antibody, copies: 2 + 2) heavy: QVQLQESGPGLVRPSQTLSLTCTVSGYSITSDHAWSWVRQPPGRGLEWIGYISYSGITTYNPSLKSRVTMLRDTSKNQFSLRLSSVTAADTAVYYCARSLARTTAMDYWGQGSLVTVSSASTKGPSVFPLAPSSKSTSGGTAALGCLVKDYFPEPVTVSWNSGALTSGVHTFPAVLQSSGLYSLSSVVTVPSSNFGTQTYTCNVDHKPSNTKVDKTVERKSCVECPPCPAPPVAGPSVFLFPPKPKDTLMISRTPEVTCVVVDVSQEDPEVQFNWYVDGVEVHNAKTKPREEQFNSTFRVVSVLTVVHQDWLNGKEYKCKVSNKGLPAPIEKTISKTKGQPREPQVYTLPPSQEEMTKNQVSLTCLVKGFYPSDIAVEWESNGQPENNYKTTPPMLDSDGSFFLYSKLTVDKSRWQEGNVFSCSVMHEALHNHYTQKSLSLSP light: DIQMTQSPSSLSASVGDSVTITCQASQDISSYLNWYQQKPGKAPELLIYYGSELHSGVPSRFSGSGSGTDFTFTISSLEAEDAATYYCQQGNSLPYTFGQGTKVEIE | 1170 | ~1.4 times that of WT-IgG1 | 1030
2 | WT-M73 (humanized PM-1 variable region, M73 constant region) (antibody, copies: 2 + 2) heavy: QVQLQESGPGLVRPSQTLSLTCTVSGYSITSDHAWSWVRQPPGRGLEWIGYISYSGITTYNPSLKSRVTMLRDTSKNQFSLRLSSVTAADTAVYYCARSLARTTAMDYWGQGSLVTVSSASTKGPSVFPLAPSSKSTSGGTAALGCLVKDYFPEPVTVSWNSGALTSGVHTFPAVLQSSGLYSLSSVVTVPSSNFGTQTYTCNVDHKPSNTKVDKTVERKSCVECPPCPAPPVAGPSVFLFPPKPKDTLMISRTPEVTCVVVDVSQEDPEVQFNWYVDGVEVHNAKTKPREEQFNSTFRVVSVLTVVHQDWLNGKEYKCKVSNKGLPAPIEKTISKTKGQPREPQVYTLPPSQEEMTKNQVSLTCLVKGFYPSDIAVEWESNGQPENNYKTTPPMLDSDGSFFLYSKLTVDKSRWQEGNVFSCSVMHEALHAHYTQKSLSLSP light: DIQMTQSPSSLSASVGDSVTITCQASQDISSYLNWYQQKPGKAPELLIYYGSELHSGVPSRFSGSGSGTDFTFTISSLEAEDAATYYCQQGNSLPYTFGQGTKVEIE | 420 | ~3.8 times that of WT-IgG1 | –

Further binders by falling Kd [1], results first:

Row | Kd [1] [nM] | binding as a multiple of that of WT-IgG1 [2] | Kd [3] [nM] | Binder
3 | 1850 | – | – | WT-M14ΔGK (humanized PM-1 variable region, M14ΔGK constant region) (antibody, copies: 2 + 2) heavy: QVQLQESGPGLVRPSQTLSLTCTVSGYSITSDHAWSWVRQPPGRGLEWIGYISYSGITTYNPSLKSRVTMLRDTSKNQFSLRLSSVTAADTAVYYCARSLARTTAMDYWGQGSLVTVSSASTKGPSVFPLAPSSKSTSGGTAALGCLVKDYFPEPVTVSWNSGALTSGVHTFPAVLQSSGLYSLSSVVTVPSSNFGTQTYTCNVDHKPSNTKVDKTVERKSCVECPPCPAPPVAGPSVFLFPPKPKDTLMISRTPEVTCVVVDVSHEDPEVQFNWYVDGVEVHNAKTKPREEQFNSTFRVVSVLTVVHQDWLNGKEYKCKVSNKGLPSSIEKTISKAKGQPREPQVYTLPPSREEMTKNQVSLTCLVKGFYPSDIAVEWESNGQPENNYKTTPPVLDSDGSFFLYSKLTVDKSRWQQGNVFSCSVMHEALHNHYTQKSLSLSP light: DIQMTQSPSSLSASVGDSVTITCQASQDISSYLNWYQQKPGKAPELLIYYGSELHSGVPSRFSGSGSGTDFTFTISSLEAEDAATYYCQQGNSLPYTFGQGTKVEIE
4 | 590 | ~2.7 times that of WT-IgG1 | – | WT-M44 (humanized PM-1 antibody, IgG1 constant region with alanine at position 434, EU numbering) (antibody, copies: 2 + 2) heavy: not shown light: DIQMTQSPSSLSASVGDSVTITCQASQDISSYLNWYQQKPGKAPELLIYYGSELHSGVPSRFSGSGSGTDFTFTISSLEAEDAATYYCQQGNSLPYTFGQGTKVEIE
